Measurements as given in US20120184020A1, “ENGINEERED MICROORGANISMS WITH ENHANCED FERMENTATION ACTIVITY” (Verdezyne, Inc., priority 2009, published 2012).
Changes are numbered by the printed parent chain.

B1: R. flavefaciens, FD-1 XI: xylose isomerase of Ruminococcus flavefaciens FD1, ZP_06143883.1, SEQ ID NO: 110 (protein, listed as Ruminococcus flavefaciens)
chain: MEFFKNISKIPYEGKDSTNPLAFKYYNPDEVIDGKKMRDIMKFALSWWHTMGGDGTDMFGCGTADKTWGENDPAARAKAKVDAAFEIMQKLSIDYFCFHDRDLSPEYGSLKDTNAQLDIVTDYIKAKQAETGLKCLWGTAKCFDHPRFMHGAGTSPSADVFAFSAAQIKKALESTVKLGGTGYVFWGGREGYETLLNTNMGLELDNMARLMKMAVEYGRSIGFKGDFYIEPKPKEPTKHQYDFDTATVLGFLRKYGLDKDFKMNIEANHATLAQHTFQHELCVARTNGAFGSIDANQGDPLLGWDTDQFPTNIYDTTMCMYEVIKAGGFTNGGLNFDAKARRGSFTPEDIFYSYIAGMDAFALGYKAASKLIADGRIDSFISDRYASWSEGIGLDIISGKADMAALEKYALEKGEVTDSISSGRQELLESIVNNVIFNL
B2: Psudomonas savastanoi: xylose isomerase from donor organism Psudomonas savastanoi (protein, UniProt Q48J73 1-438, looked up)
Xylose isomerase: MPYFPAVDKVRYEGPDSDSPLAFRHYDADKLILGKPMREHLRMAACYWHTFVWPGADMFGVGTFKRPWQGSGDPLELAIGKAETAFEFFSKLGIDYYSFHDTDVAPEGSSLKEYRNNFAQMIDQLERHQEQTGIKLLWGTANCFSNPRFAAGAASNPDPEVFAYAATQVFSAMNATQRLKGANYVLWGGREGYETLLNTDLRQEREQLGRFMRMVVEHKHKIGFKGDLLIEPKPQEPTKHQYDYDSATVFGFLQQYGLEKEIKVNIEANHATLAGHSFHHEIATAVSLGIFGSIDANRGDPQNGWDTDQFPNSVEEMTLATYEILKAGGFTNGGYNFDSKVRRQSLDEVDLFHGHVAAMDVLALALERAAAMVQNDKLQQFKDQRYAGWQQPFGKSLLAGEFSLESLAKHAFDKDLNPQAVSGRQELLEGVVNRFIYF
B3: Clostridium phytofermentans: xylose isomerase from donor organism Clostridium phytofermentans (protein)
chain: MKNYFPNVPEVKYEGPNSTNPFAFKYYDANKVVAGKTMKEHCRFALSWWHTLCAGGADPFGVTTMDRTYGNITDPMELAKAKVDAGFELMTKLGIEFFCFHDADIAPEGDTFEESKKNLFEIVDYIKEKMDQTGIKLLWGTANNFSHPRFMH
modifications: Clostridium phytofermentans
B4: Staphylococcus xylosus: xylose isomerase from donor organism Staphylococcus xylosus (protein, UniProt P27157 1-439, looked up)
Xylose isomerase: MSYFDINKVNYEGPKSNNAFSFKYYNPEEKLGNHSMSELLRFSVAYWHTFTADLSDPFGVGVAERDWDSLDEMEKAKARVEAIFEFMEKTRIDYFCFHDVDISPEGASLKESNENLDIIVELIKEKMDQTGKKLLWNTTNNFTHERFVHGAATSSNAEVFAYAAAKVKKSLEIAKKLGSENFVFWGGREGYESLLNTNMKLELDNLATFFKMAKSYADEIGYTGQFLIEPKPKEPTTHQYDTDVATAHAFLQKYDLDKDFKFNIEANHATLAGHTFQHELRYARDNNMLGSVDANQGHPLLGWDTDESTDVYDTTLAMYEILKNGGLAPGGLNFDAKPRRTSFKQEDLILTHIAGMDTFALGLRVAYKMIEDNFFENIMDEKYKSFNEGIGKKIVEGETSLKELEDYAFNINTINNTSDHLEVIKSQINQYILNINNKD
B5: XI-Rp10: chimera: first 10 amino acids of Piromyces xylose isomerase then amino acids 11 to 438 of Ruminococcus enzyme, SEQ ID NO. 58 (protein)
chain: MAKEYFPQIQQYQGPKSTDPLSFKYYNPEEVINGKTMREHLKFALSWWHTMGGDGTDMFGCGTTDKTWGQSDPAARAKAKVDAAFEIMDKLSIDYYCFHDRDLSPEYGSLKATNDQLDIVTDYIKEKQGDKFKCLWGTAKCFDHPRFMHGAGTSPSADVFAFSAAQIKKALESTVKLGGNGYVFWGGREGYETLLNTNMGLELDNMARLMKMAVEYGRSIGFKGDFYIEPKPKEPTKHQYDFDTATVLGFLRKYGLDKDFKMNIEANHATLAQHTFQHELRVARDNGVFGSIDANQGDVLLGWDTDQFPTNIYDTTMCMYEVIKAGGFTNGGLNFDAKARRGSFTPEDIFYSYIAGMDAFALGFRAALKLIEDGRIDKFVADRYASWNTGIGADIIAGKADFASLEKYALEKGEVTASLSSGRQEMLESIVNNVLFSL
B6: XI-Rp15: chimera: first 15 amino acids of Piromyces xylose isomerase then amino acids 16 to 438 of Ruminococcus enzyme, SEQ ID NO. 60 (protein)
chain: B5 chain with Q11K, Y12I, Q13K, G14F, P15E
B7: XI-Rp5: chimera: first 5 amino acids of Piromyces xylose isomerase followed by Ruminococcus xylose isomerase, SEQ ID NO. 56 (protein)
chain: MAKEYFSNIGKIQYQGPKSTDPLSFKYYNPEEVINGKTMREHLKFALSWWHTMGGDGTDMFGCGTTDKTWGQSDPAARAKAKVDAAFEIMDKLSIDYYCFHDRDLSPEYGSLKATNDQLDIVTDYIKEKQGDKFKCLWGTAKCFDHPRFMHGAGTSPSADVFAFSAAQIKKALESTVKLGGNGYVFWGGREGYETLLNTNMGLELDNMARLMKMAVEYGRSIGFKGDFYIEPKPKEPTKHQYDFDTATVLGFLRKYGLDKDFKMNIEANHATLAQHTFQHELRVARDNGVFGSIDANQGDVLLGWDTDQFPTNIYDTTMCMYEVIKAGGFTNGGLNFDAKARRGSFTPEDIFYSYIAGMDAFALGFRAALKLIEDGRIDKFVADRYASWNTGIGADIIAGKADFASLEKYALEKGEVTASLSSGRQEMLESIVNNVLFSL
B8: Escherichia coli: xylose isomerase from donor organism Escherichia coli (protein, listed as Escherichia coli)
chain: MQAYFDQLDRVRYEGSKSSNPLAFRHYNPDELVLGKRMEEHLRFAACYWHTFCWNGADMFGVGAFNRPWQQPGEALALAKRKADVAFEFFHKLHVPFYCFHDVDVSPEGASLKEYINNFAQMVDVLAGKQEESGVKLLWGTANCFTNPRYGA
B9: Arabidopsis thaliana: xylose isomerase from donor organism Arabidopsis thaliana (protein, UniProt Q9FKK7 1-477, looked up)
Xylose isomerase: MKKVEFFMLLLCFIAASSLVSADPPTCPADLGGKCSDSDDWQGDFFPEIPKIKYEGPSSKNPLAYRWYNAEEEILGKKMKDWFRFSVAFWHTFRGTGGDPFGAATKYWPWEDGTNSVSMAKRRMRANFEFLKKLGVDWWCFHDRDIAPDGTTLEESNKNLDEVIELAKELQKGSKIKPLWGTAQLFLHPRYMHGGATSSEVGVYAYAAAQVKKAMEVTHYLGGENYVFWGGREGYQTLLNTDMGRELDHLARFFEAAVAYKKKIGFKGTLLIEPKPQEPTKHQYDWDAATAANFLRKYGLIDEFKLNIECNHATLSGHTCHHELETARINGLLGNIDANTGDAQTGWDTDQFLTDVGEATMVMMSVIKNGGIAPGGFNFDAKLRRESTDVEDLFIAHISGMDTMARGLRNAVKILEEGSLSELVRKRYATWDSELGKQIEEGKADFEYLEKKAKEFGEPKVSSAKQELAEMIFQSAM

Assays:
[1] = tested on: engineered yeast (S. cerevisiae); assay: Heterologous xylose isomerase expression in yeast (active yes/no); format: cell-based; conditions: xylose isomerase of donor organism expressed in engineered yeast (S. cerevisiae)
[2] = Xylose isomerase activity/kinetic assay on soluble whole cell extract (sorbitol dehydrogenase coupled, NADH, A340); format: biochemical; conditions: for Km: xylose 40-500 mM
Procedure: […] Louis, Mo.), and about 2 U sorbitol dehydrogenase (Roche) at about 30° C. […] A Beckman DU-800 was utilized with an Enzyme Mechanism software package (Beckman Coulter, Inc.), and the change in the A340 was monitored for 2-3 minutes.
[…] Louis, Mo.), and 2 U Sorbitol Dehydrogenase (SDH) (Roche, Indianapolis, Ind.) at about 30° C. […] A Beckman DU-800 spectrophotometer was utilized with an Enzyme Mechanism software package (Beckman Coulter, Inc, Brea, Calif.), and the change in the A340 was monitored for 2-3 minutes.
[…] Louis, Mo.), and 2 U sorbitol dehydrogenase (SDH) (Roche, Indianapolis, Ind.) at about 30° C. […] A Beckman DU-800 spectrophotometer was utilized with an Enzyme Mechanism software package (Beckman Coulter, Inc, Brea, Calif.), and the change in the A340 was monitored for 2-3 minutes.
Approximately 20 μg of soluble whole cell extract from each transformed cell line was prepared using Y-PER plus reagent as described above was incubated in a solution containing about 100 mM Tris, pH 7.5, 10 mM MgCl ? 2, 0.15 mM NADH (Sigma, St. Louis, Mo.), and 2 U Sorbitol Dehydrogenase (SDH) (Roche, Indianapolis, Ind.) at about 30° C. […] A Beckman DU-800 spectrophotometer was utilized with an Enzyme Mechanism software package (Beckman Coulter, Inc, Brea, Calif.), and the change in the A340 was monitored for 2-3 minutes.

| Molecule | Active? (yes/no) [1] | Specific Activity ([2]; chimeric variants) [µmol/min/mg] | Km ([2]; chimeric variants) [mM] | also measured |
| --- | --- | --- | --- | --- |
| Piromyces xylose isomerase: xylose isomerase from Piromyces strain E2, SEQ ID NO. 35 [reference compound] | Yes | – | – | Specific Activity ([2]; soluble whole cell extract, about 30° C.): 2.02 µmol/min/mg |
| B1 | – | – | – | activity (slope) at saturating xylose (FIG. 25) ([2]; 500 mM xylose, 100 μg total soluble crude extract, expressed in S. cerevisiae): highest activity of the candidates tested; specific activity relative to native XI control activity ([2]; xylose concentrations between 40 and 500 nM (so in the source)): greater than 2 fold |
| B2 | No | – | – | – |
| B3 | Yes | – | – | – |
| B4 | No | – | – | – |
| B5 | – | 2.10 | 75.8 | – |
| B6 | – | 1.53 | 49.3 | – |
| B7 | – | 1.45 | 66.5 | – |
| B8 | No | – | – | – |
| B9 | No | – | – | – |
